Usually Kd stands for the equilibrium constant for the complex coming apart.

Kd data for one molecule are collected here from patent US20200353050A1 (Eli Lilly, published 2020).

One test has as its target T1, cynomologous monkey PD-1 (cynomologous monkey, UniProt B0LAJ3 25-170).
T1 construct: also called cynomolgus PD-1
Kind of test: method not stated in that sentence (BLI in the next one), 25° C.

The next test deals with T2, human PD-1 (human, UniProt Q15116 25-167, limits assumed).
T2 construct: also called programmed cell death protein 1; CD279
T2 sequence (Q15116 25-167 limits assumed): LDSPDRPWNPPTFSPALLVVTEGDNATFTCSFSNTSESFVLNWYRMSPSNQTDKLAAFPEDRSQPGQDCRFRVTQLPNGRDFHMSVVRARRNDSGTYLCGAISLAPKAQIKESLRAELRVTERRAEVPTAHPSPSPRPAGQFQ
Kind of test: method not stated in that sentence (BLI in the next one), 25° C; 25° C; human PD-1.

A further test addresses T3, PD-1.
T3 construct: the paragraph before it speaks of human and cynomolgus PD-1; also called programmed cell death protein 1; CD279
Kind of test: bio-layer interferometry (BLI). A general note: In BLI a coated tip is dipped into the sample, and binding shifts an interference pattern.

T1 sequence (B0LAJ3 entry or part of it limits assumed): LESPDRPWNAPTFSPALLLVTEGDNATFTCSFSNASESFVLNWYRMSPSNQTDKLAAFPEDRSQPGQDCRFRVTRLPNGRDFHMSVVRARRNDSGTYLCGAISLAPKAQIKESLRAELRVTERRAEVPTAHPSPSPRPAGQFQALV
T3 sequence (Q15116 25-170): as the sequence (B0LAJ3 entry or part of it limits assumed) above, with E2D, A10P, L19V, A35T, R75Q, A144T counted along it

B1: AM0001 (antibody, human IgG4 S228P, lambda, V domains shown)
VH: EVQLLESGGGLVQPGGSLRLSCPASGFTFSSYAMSWVRQAPGKGLGWVSDISGGGGTTYYADSVKGRFTISRDNSKNTLYLQMNSLRGEDTAVYYCAKSGTVVTDFDYWGQGTLVTVSS
VL: SYVLTQPPSVSVAPGQTARVTCGGNSIGSYSVHWYQQKPGQAPVLVVYDDSDRPSGIPERFSGSNSGNTAALTISRVEAGDEADYYCQVWDTSSYWVFGGGTKLTVLG
notes: Monoclonal antibody with a lambda 2 light chain and a hinge-stabilized IgG4 (S228P) heavy chain; also called PD1-antagonist antibody AM0001; VH-09/VL-09
Turning to B1, the Kd is at most 0.01 nM in the test with cynomologous monkey PD-1, at most 0.01 nM with human PD-1 and under 0.001 nM with PD-1.
